The source of these data is patent publication US20200182883A1 (UNIVERSITY OF MARYLAND BALTIMORE, published 2020).

Experiment [1] has as its target T1, YU2 gp120 core, from which V1, V2, and V3 have been deleted (HIV-1 YU2, UniProt P35961 82-479).
T1 construct: domain: gp120 core; also called YU2 core; YU2-core
Kind of experiment: ELISA, graded. (In general: An ELISA detects its analyte on a solid surface through an enzyme-linked reagent.)

For experiment [2], the target named is T2, HIV-1 IIIB p24 recombinant protein (HIV-1 IIIB).
T2 construct: domain: p24
In words: SPR, mAb immobilized on a Protein A chip, 0-200 nM p24, room temperature. On the technique in general: In SPR one partner is held on a chip, and binding of the other changes the refractive index at the surface.
Method: Surface Plasmon Resonance (SPR) analysis of anti-p24 mAbs. […] Surface Plasmon Resonance (SPR) analysis of each mAb binding to p24. Sensorgrams were obtained at room temperature for each mAb immobilized on a Protein A chip with 0-200 nM concentrations of p24 passed over the chip.

Experiment [3] has as its target T1, YU2 gp120 core, from which V1, V2, and …. Kind of experiment: ELISA, background-subtracted OD, mAb titrated.

B1: N60P25.1 (antibody, V domains shown)
VH: QIELVQSGTEVKRPGASVRISCASSGYRFTNYFIHWVRQAPGRGLEWMGWMNPLHGGVNYSGRFQGRVTMTRDIYTETSFMVLSGLTSDDTAIYFCTRGRDGYDDGFHPWGQGTLVTVSA
VL: YVQSQSPSTLYASVGDKITITCRSSQSGWKAWYQQKPGKAPKLLIYKSSILETGVPSRFSGSDSGTEFTLTISSLQPDDFATYYCQHFETFGQGTRVQVR
notes: Kappa light chain; also called N6025.1
For the molecule B1, the binding result in experiment [1] is reported as “no binding”.

B2: N60P53 (antibody, V domains shown)
VH: QVQLQESGPGLVKPSQTLSLTCTVSGGSINSGGYFWTWIRQEPGKGLEWIGHVHSSGTTSYNPSLKSRLTISLDSSKNQFSLNLTSVTAADTAVYYCASQGRLGIGDYWGQGALVVVSS
VL: DIQMTQSPSSLSASVGDRVTITCRASQGVSHLVNWYQQKPGKAPKPLIYTVSSLHSGVPSRISGSGSETEFTLTISSLQPEDFATYYCQQTYSSPRTFGQGTRVDLK
notes: Anti-p24 mAb; they may be variable regions only; captured on Protein A chip in SPR; also called N6053
For the molecule B2, in experiment [2], the dissociation constant (Kd) amounted to 0.0399 nM, the koff is 3.81e-05 s⁻¹ and the kon stood at 954000 M⁻¹ s⁻¹.

B3: N60P23 (antibody, V domains shown)
VH: HVQLVQSGTEVKRPGASVRISCASSGYTFSNYFIHWVRQAPGRGLEWMGWMNPLRGAVNYSGKFQGRVTMTRDIYTETSFMVLSGLRSDDTAIYFCARGRDGYEYGFNPWGQGTLVTVSS
VL: CYVQTQSPSTLYASVGDRVTITCRSSQSGWKAWYQQKPGKAPKLLIYKSSTLESGVPSRFSGSDSGTEFNLTITSLQPDDFATYFCQHFETFGQGTRVEVR
notes: they may be variable regions only; Kappa light chain
Turning to B3, the binding result in experiment [3] is “no binding (tested: 0.8 ug/ml)”.

B4: N60P2.1 (antibody, V domains shown)
VH: RAQLVQSGPEVKKPGASVRISCAASGYTFVDSFIHWLRQAPGQGLEWIGWINPLRGGVNYSGRFQGRVAMTRNTFTETVYMDINGLTPDDTATYFCVRAPDSYDRGYDAWGQGTRVIVTS
VL: YIQVTQSPSTLSASIGDTVTITCRASEGWLAWYQQKPGKAPKLIIYKTSTLERGVPSRFSGSVSGADFTLTISGLQSDDFATYYCQKFEFFGQGTVVDMK
notes: they may be variable regions only
For the molecule B4, in experiment [1], the binding result was “no binding”.

What is called Kd is a measure of binding affinity in units of concentration. In general, koff refers to the rate constant with which the complex falls apart. A word on the kon: it is a measure of how fast the partners come together.
